# Experimental data reported in the Immune Epitope Database (IEDB).
# pKd: −log10 of the molar value.
# Legend:
# [1] = molecular target: HLA-B*07:02; assay: IEDB peptide-MHC binding, purified MHC/competitive/radioactivity; filed as Kd, often an IC50 or EC50 that approximates it; ≥ and ≤ were set here for values at or beyond the usual limits of such assays
# [2] = molecular target: HLA-B*35:01; assay: as above
# [3] = molecular target: HLA-B*51:01; assay: as above
# [4] = molecular target: HLA-B*53:01; assay: as above
# [5] = molecular target: HLA-B*54:01; assay: as above
# [6] = molecular target: HLA-A*68:02; assay: as above
# [7] = molecular target: HLA-B*15:01; assay: IEDB peptide-MHC binding, purified MHC/competitive/fluorescence; filed as Kd, often an IC50 or EC50 that approximates it; ≥ and ≤ were set here for values at or beyond the usual limits of such assays; settings: source organism: Kurkino virus
# [8] = molecular target: HLA-A*23:01; assay: IEDB peptide-MHC binding, purified MHC/competitive/radioactivity; filed as Kd, often an IC50 or EC50 that approximates it; ≥ and ≤ were set here for values at or beyond the usual limits of such assays
# [9] = molecular target: HLA-A*24:02; assay: as above; settings: source organism: Dengue virus 2 Jamaica/1409/1983
# [10] = molecular target: HLA-B*15:01; assay: as above
# [11] = molecular target: HLA-A*02:06; assay: as above
# [12] = molecular target: HLA-A*24:03; assay: IEDB peptide-MHC binding, purified MHC/direct/fluorescence; filed as Kd, often an IC50 or EC50 that approximates it; ≥ and ≤ were set here for values at or beyond the usual limits of such assays
# [13] = molecular target: HLA-B*51:01; assay: IEDB peptide-MHC binding, purified MHC/competitive/fluorescence; filed as Kd, often an IC50 or EC50 that approximates it; ≥ and ≤ were set here for values at or beyond the usual limits of such assays; settings: source organism: Yersinia pestis Nepal516
# [14] = molecular target: HLA-A*03:01; assay: IEDB peptide-MHC binding, purified MHC/competitive/radioactivity; filed as Kd, often an IC50 or EC50 that approximates it; ≥ and ≤ were set here for values at or beyond the usual limits of such assays
# [15] = molecular target: HLA-A*31:01; assay: as above
# [16] = molecular target: HLA-A*33:01; assay: as above
# [17] = molecular target: HLA-B*08:01; assay: as above
# [18] = molecular target: HLA-A*01:01; assay: as above; settings: source organism: Dengue virus 4 Philippines/H241/1956
# [19] = molecular target: HLA-A*26:01; assay: as above
# [20] = molecular target: HLA-A*02:02; assay: as above
# [21] = molecular target: HLA-A*02:03; assay: as above; settings: source organism: Vaccinia virus WR
# [22] = molecular target: HLA-A*30:02; assay: as above
# [23] = molecular target: HLA-A*11:01; assay: as above; settings: source organism: Vaccinia virus WR
# [24] = molecular target: HLA-A*68:01; assay: as above; settings: source organism: Vaccinia virus WR
# [25] = source organism: Triticum aestivum
# [26] = source organism: Dengue virus 4 Philippines/H241/1956
# [27] = source organism: Vaccinia virus WR
# [28] = source organism: Mammarenavirus choriomeningitidis
# [29] = source organism: SARS coronavirus Tor2
# [30] = source organism: Dengue virus 2 Jamaica/1409/1983
# [31] = source organism: Mammarenavirus lassaense
# [32] = source organism: Dengue virus 3 Martinique/1243/1999
# [33] = source organism: Mammarenavirus brazilense
# [34] = source organism: Dengue virus 1 Brazil/97-11/1997
# [35] = source organism: Lymphocytic choriomeningitis virus (strain Armstrong)
sequence,measurement,setting,value
YPLGQGSF,pKd,[1]; [25],5.26
same,pKd,[2]; [25],5.82
same,pKd,[3]; [25],5.94
same,pKd,[4]; [25],5.78
same,pKd,[5]; [25],≤ 4.27
MVMTTTANWL,pKd,[6]; [26],8.19
NPQAQGSV,pKd,[1]; [25],5.44
same,pKd,[2]; [25],≤ 4.06
same,pKd,[3]; [25],5.22
same,pKd,[4]; [25],≤ 4.06
same,pKd,[5]; [25],4.96
QPFLQPQLPY,pKd,[1]; [25],6.02
same,pKd,[2]; [25],7.54
same,pKd,[3]; [25],4.84
same,pKd,[4]; [25],5.34
same,pKd,[5]; [25],≤ 4.33
DPQNAAVNV,pKd,[1]; [27],≤ 4.11
same,pKd,[2]; [27],≤ 4.11
same,pKd,[3]; [27],5.90
same,pKd,[4]; [27],≤ 4.43
same,pKd,[5]; [27],≤ 4.49
CPFLFLMLL,pKd,[1]; [28],≤ 4.11
same,pKd,[2]; [28],5.85
same,pKd,[3]; [28],≤ 4.34
same,pKd,[4]; [28],5.68
same,pKd,[5]; [28],6.85
EPLSPDTCLL,pKd,[1]; [27],≤ 4.22
same,pKd,[2]; [27],6.55
same,pKd,[3]; [27],≤ 4.16
same,pKd,[4]; [27],6.54
same,pKd,[5]; [27],≤ 4.21
FQTLTSCTF,pKd,[7],7.45
LTASLVMLLV,pKd,[6]; source organism: Dengue virus 4 Dominica/814669/1981,7.52
RPLMESELV,pKd,[1]; [29],5.09
same,pKd,[2]; [29],≤ 4.61
same,pKd,[3]; [29],5.63
same,pKd,[4]; [29],≤ 4.37
same,pKd,[5]; [29],≤ 4.32
EPVVKDKIKL,pKd,[1]; [27],≤ 4.50
same,pKd,[2]; [27],≤ 4.16
same,pKd,[3]; [27],≤ 4.16
same,pKd,[4]; [27],≤ 4.27
same,pKd,[5]; [27],≤ 4.37
FMALVAFLRF,pKd,[8]; [30],5.60
same,pKd,[9],≤ 4.55
same,pKd,[10]; [30],6.64
same,pKd,[2]; [30],7.16
same,pKd,[4]; [30],6.00
DPEKFNARMA,pKd,[1]; [27],≤ 4.27
same,pKd,[2]; [27],≤ 4.16
same,pKd,[3]; [27],≤ 4.39
same,pKd,[4]; [27],≤ 4.35
same,pKd,[5]; [27],6.00
ALMVIGMAM,pKd,[10]; [26],8.58
MPDCGMSVL,pKd,[1]; [31],7.00
same,pKd,[2]; [31],8.33
same,pKd,[3]; [31],5.55
same,pKd,[4]; [31],7.08
same,pKd,[5]; [31],5.57
SLPLPNFSSL,pKd,[11]; source organism: Homo sapiens,6.19
same,pKd,[6]; source organism: Homo sapiens,8.92
VYRIMTRGL,pKd,[12]; source organism: West Nile virus,6.24
MSTYGWNIV,pKd,[6]; [32],7.40
YTPEGIIPTL,pKd,[11]; [26],7.67
same,pKd,[6]; [26],6.58
LPDALLFTL,pKd,[1]; [33],6.70
same,pKd,[2]; [33],7.88
same,pKd,[3]; [33],5.48
same,pKd,[4]; [33],7.84
same,pKd,[5]; [33],5.54
LPWLIFIQI,pKd,[13],5.77
MLLNRFTTR,pKd,[14]; [26],7.92
same,pKd,[15]; [26],8.82
same,pKd,[16]; [26],7.83
same,pKd,[17]; [26],5.61
RPEMQEFEY,pKd,[1]; [27],≤ 4.16
same,pKd,[2]; [27],8.09
same,pKd,[3]; [27],≤ 4.11
same,pKd,[4]; [27],7.78
same,pKd,[5]; [27],≤ 4.11
ETNMITLLV,pKd,[18],6.68
same,pKd,[19]; [26],6.47
same,pKd,[6]; [26],8.14
MVRILIGFLV,pKd,[6]; [26],6.40
TSAGVNMCTL,pKd,[6]; [34],8.16
SASSMVNGV,pKd,[6]; [30],7.61
LTYQNKVVRV,pKd,[6]; [30],7.55
LSRVFFCVY,pKd,[10]; [27],8.54
PPALNCYWPL,pKd,[1]; [29],4.90
same,pKd,[2]; [29],≤ 4.24
same,pKd,[3]; [29],5.92
same,pKd,[4]; [29],≤ 4.16
same,pKd,[5]; [29],≤ 4.42
LPYVGDTSMM,pKd,[1]; [27],6.08
same,pKd,[2]; [27],6.09
same,pKd,[3]; [27],5.52
same,pKd,[4]; [27],5.07
same,pKd,[5]; [27],≤ 4.16
QLFKYVPSA,pKd,[20]; [27],7.91
same,pKd,[21],8.11
same,pKd,[11]; [27],6.46
same,pKd,[10]; [27],6.42
SPKFTTSLSL,pKd,[1]; [29],8.08
same,pKd,[2]; [29],5.10
same,pKd,[3]; [29],5.96
same,pKd,[4]; [29],5.89
same,pKd,[5]; [29],≤ 4.54
YVVIGLLFMI,pKd,[11]; [34],6.85
same,pKd,[6]; [34],6.99
TSNHGVTATI,pKd,[6]; source organism: Dengue virus 4 Thailand/0348/1991,6.89
LPHIIDEVM,pKd,[1]; [28],6.81
same,pKd,[2]; [28],7.82
same,pKd,[3]; [28],5.03
same,pKd,[4]; [28],6.07
same,pKd,[5]; [28],5.05
STANIFRGSY,pKd,[18],5.94
same,pKd,[19]; [26],7.63
same,pKd,[22]; [26],8.68
same,pKd,[10]; [26],8.31
IPGDILSII,pKd,[1]; [27],7.36
same,pKd,[2]; [27],6.58
same,pKd,[3]; [27],9.34
same,pKd,[4]; [27],7.56
same,pKd,[5]; [27],6.43
VSVNNVCHM,pKd,[10]; source organism: Vaccinia virus Copenhagen,7.86
NPIVLHNGM,pKd,[1]; [33],5.75
same,pKd,[2]; [33],6.36
same,pKd,[3]; [33],≤ 4.49
same,pKd,[4]; [33],4.98
same,pKd,[5]; [33],≤ 4.11
MIIMDEAHF,pKd,[10]; [34],7.73
LLHCVTESY,pKd,[14]; [27],5.41
same,pKd,[23],5.08
same,pKd,[15]; [27],4.90
same,pKd,[16]; [27],≤ 4.58
same,pKd,[24],4.91
same,pKd,[10]; [27],8.98
QLKGQGKSRL,pKd,[11]; source organism: Homo sapiens,≤ 4.37
same,pKd,[6]; source organism: Homo sapiens,≤ 4.22
ESPARLASAI,pKd,[19]; [26],5.35
same,pKd,[6]; [26],6.30
ALITVSGLY,pKd,[18],5.09
same,pKd,[19]; [26],6.25
same,pKd,[22]; [26],9.17
same,pKd,[10]; [26],8.65
AFMRFDDQF,pKd,[12]; source organism: Listeria monocytogenes,≥ 9.00
EVEDYGFGV,pKd,[6]; [30],8.15
NTNKHMLEF,pKd,[10]; [27],7.93
QPQQLPQF,pKd,[1]; [25],5.84
same,pKd,[2]; [25],≤ 4.06
same,pKd,[3]; [25],≤ 4.06
same,pKd,[4]; [25],≤ 4.06
same,pKd,[5]; [25],≤ 4.06
RTNAAMGAVF,pKd,[8]; [32],5.69
same,pKd,[19]; [32],≤ 4.24
same,pKd,[10]; [32],7.71
QPGLLSYVI,pKd,[1]; [33],4.91
same,pKd,[2]; [33],5.96
same,pKd,[3]; [33],5.65
same,pKd,[4]; [33],6.51
same,pKd,[5]; [33],5.30
SSALLWMASV,pKd,[6]; [34],7.33
EIYTYFSHC,pKd,[10]; [27],6.03
SMISRHCCI,pKd,[17]; [27],8.90
same,pKd,[10]; [27],7.09
MSIPATLFV,pKd,[11]; [34],7.92
same,pKd,[6]; [34],9.20
ALLLLVAHY,pKd,[22]; [30],≤ 4.11
same,pKd,[10]; [30],7.30
KLREYEAAL,pKd,[20]; source organism: Homo sapiens,7.56
same,pKd,[6]; source organism: Homo sapiens,≤ 4.55
DTVTYKCPHI,pKd,[6]; [32],7.05
MPEWANFKF,pKd,[1]; [35],6.11
same,pKd,[2]; [35],8.03
same,pKd,[3]; [35],≤ 4.55
same,pKd,[4]; [35],7.87
same,pKd,[5]; [35],5.86
HPIMYYTKF,pKd,[1]; [35],6.87
same,pKd,[2]; [35],7.75
same,pKd,[3]; [35],5.80
same,pKd,[4]; [35],7.84
same,pKd,[5]; [35],5.42
FAPSYSAEM,pKd,[10]; [27],6.34
